The source of these data is US20190225703A1 (INNATE PHARMA, published 2019).

For test [1], the target named is T1, human CD73 (ecto-5'-nucleotidase) expressed at the cell surface (human, UniProt P21589 27-549).
T1 construct: Used for huCD73-expressing recombinant cell lines, MDA-MB-231 cells (endogenous CD73), HEK-293T cells with wild type CD73, and primary T and B cells; also called huCD73; wild type CD73
T1 sequence: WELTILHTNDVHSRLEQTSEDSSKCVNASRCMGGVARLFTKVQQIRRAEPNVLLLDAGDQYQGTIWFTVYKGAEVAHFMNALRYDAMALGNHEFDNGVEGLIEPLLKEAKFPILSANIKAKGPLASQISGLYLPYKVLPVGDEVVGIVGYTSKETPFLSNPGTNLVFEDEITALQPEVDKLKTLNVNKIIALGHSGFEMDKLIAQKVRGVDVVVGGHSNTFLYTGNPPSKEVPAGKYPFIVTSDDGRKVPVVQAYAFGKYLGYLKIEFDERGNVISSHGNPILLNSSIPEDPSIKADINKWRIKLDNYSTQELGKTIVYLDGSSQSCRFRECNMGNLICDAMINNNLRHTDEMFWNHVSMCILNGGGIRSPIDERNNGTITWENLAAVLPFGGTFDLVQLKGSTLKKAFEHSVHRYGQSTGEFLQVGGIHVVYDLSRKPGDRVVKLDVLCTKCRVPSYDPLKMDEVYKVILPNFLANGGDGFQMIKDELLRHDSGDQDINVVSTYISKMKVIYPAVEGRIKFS
Kind of test: flow cytometry titration on HEK-293T cells transfected with wild type human CD73. As for the experimental part: (§1) Anti-CD73 antibodies are tested for their binding to each mutant by flow cytometry. A first experiment is performed to determine antibodies that lose their binding to one or several mutants at one concentration. To confirm a loss of binding, titration of antibodies is done on antibodies for which binding seemed to be affected by the CD73 mutations (1-0.1-0.01-0.001 μg/ml).
On the technique in general: In flow cytometry, cells or beads pass a laser one at a time.

For test [2], the target named is T1, human CD73 (ecto-5'-nucleotidase) …. The test can be described thus: flow cytometry titration on MDA-MB-231 cells, endogenous CD73. As to the method: (§2) 10⁵ cells resuspended in PBS/0.2% BSA/0.02% NaN3 (named “staining buffer”) are distributed into round bottom 96W-microplates. Dose-range of anti-CD73 antibodies was added to the plates and cells are incubated for 45 min at 4° C. Cells were washed three times in staining buffer by spinning plates at 400 g for 3 min at 4° C. PE-coupled goat anti-mouse or goat anti-human IgG Fc fragment secondary antibodies (Beckman Coulter) diluted in staining buffer were added to the cells and plates are incubated for 30 additional minutes at 4° C. Cells were washed three times as described above and analyzed on an Accury C6 flow cytometer equipped with an HTFC plate reader.
(§3) Median of fluorescence vs. antibodies concentration was plotted on graphs and EC50 is calculated using GraphPad Prism program.

Test [3] has as its target T2, mouse CD73 expressed at the cell surface (mouse, UniProt Q61503 29-551).
T2 construct: whole, on cells; Recombinant cell line expressing mouse CD73; also called moCD73
T2 sequence (looked up): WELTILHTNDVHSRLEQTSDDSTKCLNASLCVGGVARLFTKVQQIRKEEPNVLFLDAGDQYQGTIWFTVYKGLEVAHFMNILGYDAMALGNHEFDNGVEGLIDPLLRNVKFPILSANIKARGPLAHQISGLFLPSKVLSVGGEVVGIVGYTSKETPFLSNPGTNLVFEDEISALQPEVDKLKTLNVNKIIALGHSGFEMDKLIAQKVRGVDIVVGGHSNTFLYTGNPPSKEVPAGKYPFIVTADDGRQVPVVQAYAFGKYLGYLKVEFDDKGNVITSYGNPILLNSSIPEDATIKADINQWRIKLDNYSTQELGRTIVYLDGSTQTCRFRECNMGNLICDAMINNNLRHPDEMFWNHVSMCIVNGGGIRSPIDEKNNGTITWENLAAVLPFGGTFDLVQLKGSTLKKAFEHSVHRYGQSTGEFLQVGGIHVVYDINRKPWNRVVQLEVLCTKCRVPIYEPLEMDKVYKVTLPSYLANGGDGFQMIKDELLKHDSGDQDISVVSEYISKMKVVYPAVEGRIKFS
The test can be described thus: flow cytometry titration on a cell line expressing mouse CD73. As to the method: as §2, §3

The target in the next test is T3, human CD73 mutant 2 (human, UniProt P21589 27-549).
T3 construct: Transfected in HEK-293T cells; The cell prints A1071, read as A107I
T3 chain: T1 sequence with Q44S, R47A, A48E, A81I, R83G
The test can be described thus: flow cytometry titration on HEK-293T cells transfected with CD73 mutant 2. As for the experimental part: as §1

Residue numbers refer to the chain shown, from its start.

B1: antibody 7H10 (antibody, human IgG1, V domains shown)
VH: DVQLQESGPGLVKPSQSLSLTCTVTGYSITSDYAWNWIRQFPGNKLEWMGYIIYSGSTSYNPSLNSRISITRDTSKNQFFLQLNSVTTEDTATYYCAREAYLYFDYWGQGTTLTVSS
VL: DIQMTQTTSSLSASLGDRVTISCRASQDINNYLNWYQQKPDGTVKLLIYYTSRLHSGVPSRFSGSGSGTDYSLTISNLEREDVATYFCQQGNTLPWTFGGGTKLEIK
The EC50 (read off the curve) is the concentration that produces a half-maximal response. Read a high EC50 (read off the curve) as a need for much substance. As usually defined, the EC50 is the concentration at which the effect is half-maximal. High values mean lower potency in that assay, low ones higher potency in that assay. Regarding B1, in test [1], the “EC50 (read off the curve)” value is ~0.2 µg/mL. Besides, in test [2], the EC50 came out at 0.054 µg/mL and the “fold lower EC50 than AD2” value was ~8 fold. The binding result in test [3] is recorded as “no binding (tested: 10 µg/ml)”. Also, the binding result with human CD73 mutant 2 is “no binding (tested: 10 µg/ml)”.
